In patent US20090123572:

Columns and labels:
[1] = biological target: T1, recombinant squamous cell carcinoma antigen 1 (SCCA-1), P29508
T1 chain: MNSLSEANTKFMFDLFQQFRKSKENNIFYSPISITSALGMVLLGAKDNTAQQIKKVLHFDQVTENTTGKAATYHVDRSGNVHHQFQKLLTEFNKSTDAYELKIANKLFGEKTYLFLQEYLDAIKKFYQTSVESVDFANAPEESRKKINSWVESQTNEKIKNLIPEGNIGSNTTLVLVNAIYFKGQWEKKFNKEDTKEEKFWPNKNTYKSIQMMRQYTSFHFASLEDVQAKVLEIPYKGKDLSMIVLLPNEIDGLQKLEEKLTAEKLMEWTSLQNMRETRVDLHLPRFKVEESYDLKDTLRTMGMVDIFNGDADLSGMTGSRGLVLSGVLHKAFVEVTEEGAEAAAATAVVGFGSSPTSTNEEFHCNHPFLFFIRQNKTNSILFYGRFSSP

[2] = biological target: T2, recombinant ICAD protein, O00273
T2 chain: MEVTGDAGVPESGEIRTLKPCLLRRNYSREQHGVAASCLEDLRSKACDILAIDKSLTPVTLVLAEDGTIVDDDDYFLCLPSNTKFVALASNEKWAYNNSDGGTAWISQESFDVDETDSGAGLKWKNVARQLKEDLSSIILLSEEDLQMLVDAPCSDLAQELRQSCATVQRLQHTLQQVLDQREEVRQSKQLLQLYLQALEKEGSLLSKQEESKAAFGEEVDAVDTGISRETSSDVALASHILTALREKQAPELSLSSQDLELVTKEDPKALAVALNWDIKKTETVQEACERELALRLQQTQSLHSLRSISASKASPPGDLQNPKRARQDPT

B1: recombinant caspase-1 (protein)
chain: NPAMPTSSGSEGNVKLCSLEEAQRIWKQKSAEIYPIMDKSSRTRLALIICNEEFDSIPRRTGAEVDITGMTMLLQNLGYSVDVKKNLTASDMTTELEAFAHRPEHKTSDSTFLVFMSHGIREGICGKKHSEQVPDILQLNAIFNMLNTKNCPSLKDKPKVIIIQACRGDSPGVVWFKDSVGVSGNLSLPTTEEFEDDAIKKAHIEKDFIAFCSSTPDNVSWRHPTMGSVFIGRLIEHMQEYACSCDVEEIFRKVRFSFEQPDGRAQMPTTERVTLTRCFYLFPGH
B1 was tested, and the “enzyme activity of recombinant caspase incubated with SCCA-1 (synthetic caspase substrates)” value (shortened to “enzyme activity”) [1] was “None of the caspase members (1 to 10) were affected with respect to enzyme activity when recombinant caspase was incubated with SCCA-1”.

B2: recombinant caspase-4 (protein)
chain: QISPNKKAHPNMEAGPPESGESTDALKLCPHEEFLRLCKERAEEIYPIKERNNRTRLALIICNTEFDHLPPRNGADFDITGMKELLEGLDYSVDVEENLTARDMESALRAFATRPEHKSSDSTFLVLMSHGILEGICGTVHDEKKPDVLLYDTIFQIFNNRNCLSLKDKPKVIIVQACRGANRGELWVRDSPASLEVASSQSSENLEEDAVYKTHVEKDFIAFCSSTPHNVSWRDSTMGSIFITQLITCFQKYSWCCHLEEVFRKVQQSFETPRAKAQMPTIERLSMTRYFYLFPGN
In the case of B2, the “enzyme activity” value [1] is reported as “None of the caspase members (1 to 10) were affected with respect to enzyme activity when recombinant caspase was incubated with SCCA-1”.

B3: recombinant caspase-5 (protein)
chain: DQKITSVKPLLQIEAGPPESAESTNILKLCPREEFLRLCKKNHDEIYPIKKREDRRRLALIICNTKFDHLPARNGAHYDIVGMKRLLQGLGYTVVDEKNLTARDMESVLRAFAARPEHKSSDSTFLVLMSHGILEGICGTAHKKKKPDVLLYDTIFQIFNNRNCLSLKDKPKVIIVQACRGEKHGELWVRDSPASLALISSQSSENLEADSVCKIHEEKDFIAFCSSTPHNVSWRDRTRGSIFITELITCFQKYSCCCHLMEIFRKVQKSFEVPQAKAQMPTIERATLTRDFYLFPGN
With B3 the “enzyme activity” value [1] was “None of the caspase members (1 to 10) were affected with respect to enzyme activity when recombinant caspase was incubated with SCCA-1”.

B4: recombinant caspase-9 (protein)
chain: GALESLRGNADLAYILSMEPCGHCLIINNVNFCRESGLRTRTGSNIDCEKLRRRFSSLHFMVEVKGDLTAKKMVLALLELAQQDHGALDCCVVVILSHGCQASHLQFPGAVYGTDGCPVSVEKIVNIFNGTSCPSLGGKPKLFFIQACGGEQKDHGFEVASTSPEDESPGSNPEPDATPFQEGLRTFDQLDAISSLPTPSDIFVSYSTFPGFVSWRDPKSGSWYVETLDDIFEQWAHSEDLQSLLLRVANAVSVKGIYKQMPGCFNFLRKKLFFKTS
With B4 the “enzyme activity” value [1] was “None of the caspase members (1 to 10) were affected with respect to enzyme activity when recombinant caspase was incubated with SCCA-1”.

B5: purified caspase-14 from human cornified cells (heterodimer of 17 KDa large subunit and 11 KDa small subunit) (protein)
chain 1: SLEEEKYDMSGARLALILCVTKAREGSEEDLDALEHMFRQLRFESTMKRDPTAEQFQEELEKFQQAIDSREDPVSCAFVVLMAHGREGFLKGEDGEMVKLENLFEALNNKNCQALRAKPKVYIIQACRGEQRDPGETVGGD
chain 2: KDSPQTIPTYTDALHVYSTVEGYIAYRHDQKGSCFIQTLVDVFTKRKGHILELLTEVTRRMAEAELVQEGKARKTNPEIQSTLRKRLYLQ
In the case of B5, the “ICAD cleavage products (Western blot with FL331 antibody)” value [2] is reported as “Cleavage products were observed at 33 and 27 KDa”, the “decomposition of recombinant ICAD in the presence of kosmotropic salt (Western blot with anti-ICAD IgG)” value [2] is reported as “since the amount of intact ICAD protein decreases and two major decomposition products increase in the presence of kosmotropic salt, purified caspase-14 demonstrated limited decomposing action on ICAD” and the “fragments formed from ICAD; sequence analysis of the cleavage sites” value [2] is reported as “caspase-14 formed fragments resembling 12 KDa and 35 KDa from ICAD. Sequence analysis indicated identical cleavage sites”. For the same protein, the “hydrolysis of recombinant ICAD in an ordinary caspase assay buffer (Western blot with anti-ICAD IgG)” value [2] was “purified caspase-14 did not demonstrate any hydrolysis activity on ICAD”.

B6: recombinant caspase-3 (protein)
chain: SGISLDNSYKMDYPEMGLCIIINNKNFHKSTGMTSRSGTDVDAANLRETFRNLKYEVRNKNDLTREEIVELMRDVSKEDHSKRSSFVCVLLSHGEEGIIFGTNGPVDLKKITNFFRGDRCRSLTGKPKLFIIQACRGTELDCGIETDSGVDDDMACHKIPVEADFLYAYSTAPGYYSWRNSKDGSWFIQSLCAMLKQYADKLEFMHILTRVNRKVATEFESFSFDATFHAKKQIPCIVSMLTKELYFYH
In the case of B6, the “caspase-3 activity on the synthetic substrate DEVD-MCA or the natural substrate ICAD” value [1] is reported as “SCCA-1 did not inhibit caspase-3 activity using the synthetic substrate DEVD-MCA or the natural substrate ICAD” and the “enzyme activity” value [1] is reported as “None of the caspase members (1 to 10) were affected with respect to enzyme activity when recombinant caspase was incubated with SCCA-1”.

B7: recombinant caspase-8 (protein)
chain: SESQTLDKVYQMKSKPRGYCLIINNHNFAKAREKVPKLHSIRDRNGTHLDAGALTTTFEELHFEIKPHDDCTVEQIYEILKIYQLMDHSNMDCFICCILSHGDKGIIYGTDGQEAPIYELTSQFTGLKCPSLAGKPKVFFIQACQGDNYQKGIPVETDSEEQPYLEMDLSSPQTRYIPDEADFLLGMATVNNCVSYRNPAEGTWYIQSLCQSLRERCPRGDDILTILTEVNYEVSNKDDKKNMGKQMPQPTFTLRKKLVFPSD
For B7, the “enzyme activity” value [1] was “None of the caspase members (1 to 10) were affected with respect to enzyme activity when recombinant caspase was incubated with SCCA-1”.

B8: recombinant caspase-2 (protein)
chain: GPVCLQVKPCTPEFYQTHFQLAYRLQSRPRGLALVLSNVHFTGEKELEFRSGGDVDHSTLVTLFKLLGYDVHVLCDQTAQEMQEKLQNFAQLPAHRVTDSCIVALLSHGVEGAIYGVDGKLLQLQEVFQLFDNANCPSLQNKPKMFFIQACRGDETDRGVDQQDGKNHAGSPGCEESDAGKEKLPKMRLPTRSDMICGYACLKGTAAMRNTKRGSWYIEALAQVFSERACDMHVADMLVKVNALIKDREGYAPGTEFHRCKEMSEYCSTLCRHLYLFPGHPPT
In the case of B8, the “enzyme activity” value [1] is reported as “None of the caspase members (1 to 10) were affected with respect to enzyme activity when recombinant caspase was incubated with SCCA-1”.

B9: recombinant caspase-10 (protein)
chain: VKTFLEALPQESWQNKHAGSNGNRATNGAPSLVSRGMQGASANTLNSETSTKRAAVYRMNRNHRGLCVIVNNHSFTSLKDRQGTHKDAEILSHVFQWLGFTVHIHNNVTKVEMEMVLQKQKCNPAHADGDCFVFCILTHGRFGAVYSSDEALIPIREIMSHFTALQCPRLAEKPKLFFIQACQGEEIQPSVSIEADALNPEQAPTSLQDSIPAEADFLLGLATVPGYVSFRHVEEGSWYIQSLCNHLKKLVPRMLKFLEKTMEIRGRKRTVWGAKQISATSLPTAISAQTPRPPMRRWSSVS
With B9 the “enzyme activity” value [1] was “None of the caspase members (1 to 10) were affected with respect to enzyme activity when recombinant caspase was incubated with SCCA-1”.

B10: recombinant caspase-7 (protein)
chain: AKPDRSSFVPSLFSKKKKNVTMRSIKTTRDRVPTYQYNMNFEKLGKCIIINNKNFDKVTGMGVRNGTDKDAEALFKCFRSLGFDVIVYNDCSCAKMQDLLKKASEEDHTNAACFACILLSHGEENVIYGKDGVTPIKDLTAHFRGDRCKTLLEKPKLFFIQACRGTELDDGIQADSGPINDTDANPRYKIPVEADFLFAYSTVPGYYSWRSPGRGSWFVQALCSILEEHGKDLEIMQILTRVNDRVARHFESQSDDPHFHEKKQIPCVVSMLTKELYFSQ
B10 was tested, and the “enzyme activity” value [1] was “None of the caspase members (1 to 10) were affected with respect to enzyme activity when recombinant caspase was incubated with SCCA-1”.

B11: recombinant caspase-6 (protein)
chain: AFYKREMFDPAEKYKMDHRRRGIALIFNHERFFWHLTLPERRGTCADRDNLTRRFSDLGFEVKCFNDLKAEELLLKIHEVSTVSHADADCFVCVFLSHGEGNHIYAYDAKIEIQTLTGLFKGDKCHSLVGKPKIFIIQACRGNQHDVPVIPLDVVDNQTEKLDTNITEVDAASVYTLPAGADFLMCYSVAEGYYSHRETVNGSWYIQDLCEMLGKYGSSLEFTELLTLVNRKVSQRRVDFCKDPSAIGKKQVPCFASMLTKKLHFFPKSN
B11 was tested, and the “enzyme activity” value [1] was “None of the caspase members (1 to 10) were affected with respect to enzyme activity when recombinant caspase was incubated with SCCA-1”.
